According to patent US20230093169A1, “COMBINATIONS OF ANTIBODY CONSTRUCTS AND INHIBITORS OF CYTOKINE RELEASE SYNDROME AND USES THEREOF” (AMGEN RESEARCH (MUNCH) GMBH, priority 2020, published 2023):

How the values were obtained:
[1] = tested on: VCAM-1 expression on CD31+HUVEC; assay: Blinatumumab VCAM assay: VCAM-1 on CD31+ HUVEC in co-cultures with T cells and NALM-6; assay type: cell-based, human; settings: isolated T cells and NALM-6
Procedure: FIG. 7. VCAM-1 Expression on HUVEC in AMG 103 Co-culture Assays: VCAM-1 expression by flow cytometry. […] expression levels are expressed as Median Fluorescence Intensity (MFI). VCAM-1 expressing HUVEC are expressed as percentage of CD31+HUVEC. Error bars indicate the standard error of the mean of duplicate measurements. Two PBMC donors were used in this experiment.
The effect of blinatumomab (AMG 103) on T cell activation and the induction of VCAM-1 on endothelial cells was analyzed in co-cultures of HUVEC, isolated T cells and CD19-expressing NALM-6 target cells. VCAM-1 expression on CD31+HUVEC was analyzed by flow cytometry.

[2] = tested on: MCP-1 release in HUVEC co-cultured with CD19-expressing NALM-6 cells and human PBMC; assay: BiTE-induced MCP-1 release in co-culture of HUVEC, NALM-6 cells and human PBMC, with or without etanercept; assay type: cell-based; settings: HUVEC + NALM-6 + human PBMC; after 2 and 5 hours
Excerpt: FIG. 6. AMG 103-mediated MCP-1 Secretion: MCP-1 concentrations in cell culture supernatants were quantified by the BD Cytometric CBA human MCP-1 Flex Set. Error bars in both graphs indicate the standard error of the mean of duplicate measurements.
Human umbilical vein endothelial cells (HUVEC) were co-cultured with CD19-expressing NALM-6 cells and human PBMC and increasing concentrations of BiTE® antibody construct blinatumomab (AMG 103) against CD19 in the absence or presence of etanercept. MCP-1 concentrations were determined with the BD Cytometric CBA human MCP-1 Flex set system (BD, Germany after 2 and 5 hours, respectively according to the manufacturer's instructions and are shown in FIG. 6.

TNF-α = biological target: T1, TNF-α (Homo sapiens, UniProt P01375); assay: Etanercept prophylaxis for PSMA-targeting BiTE-related CRS in humans; assay type: in vivo
T1 construct: endogenous in cells; host or cells: human subjects (clinical cohort), in vivo
Procedure: Etanercept premedication occurred within two days before BiTE administration to assess whether prophylaxis with the TNF-α inhibitor decreases the frequency and severity of CRS without compromising the efficacy of the BiTE. In an initial cohort of 6 to 8 subjects, the PSMA-targeting BiTE is administered. In addition to dexamethasone prophylaxis, subjects in the cohort received prophylaxis with etanercept (50 mg subcutaneously [SC]) two days prior to each dose of PSMA-targeting BiTE in the first administration cycle.
Subject incidence of safety events, including dose-limiting toxicities (DLTs), serious adverse events (SAEs), and adverse events leading to treatment discontinuation or dose reduction, will be reviewed when at least 3 DLT-evaluable subjects complete the DLT window. Subjects receiving three individual increasing doses of PSMA-targeting BiTE with etanercept prophylaxis experienced 1 DLT/SAE (grade 3 (G3) thrombocytopenia), 1 SAE (Grade 3 (G3) Afib), 0 dose reductions, 1 discontinuation (tolerability), CRS events in cycle 1: 4 grade 2 (G2), no grade 3/4 (G3/4). […] In the latter group 1 DLT/SAE (G3 Hypoacusis), 2 SAE (grade 3 (G3) Pruritus, grade 2/3 (G2/G3) CRS), 2 dose reductions, 2 discontinuations (disease progression), and CRS events in cycle 1: 4 grade 1 (G1), 7 grade 2 (G2), 4 grade 3 (G3) were observed. In the etanercept prophylaxis group the PSMA-targeting BiTE was administered at the same dosages and frequency as in the group without etanercept prophylaxis.

[3] = cited from earlier work
[4] = subjects on PSMA-targeting BiTE with prophylaxis

T1 sequence (P01375 77-233 limits assumed): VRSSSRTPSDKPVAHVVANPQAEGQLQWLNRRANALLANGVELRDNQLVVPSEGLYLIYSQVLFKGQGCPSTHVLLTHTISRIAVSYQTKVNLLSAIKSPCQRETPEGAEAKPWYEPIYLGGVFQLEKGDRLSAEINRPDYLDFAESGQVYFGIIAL

AMG 103: BiTE® antibody construct against CD19
VCAM-1 expression on CD31+HUVEC ([1]; co-cultures of HUVEC, flow cytometry): up-regulated

etanercept
effect on BiTE molecule (AMG 103) induced MCP-1 release [2]: Blocked
sensitivity of AMG 103-induced VCAM-1 up-regulation to TNF blockade [1]: sensitive
CRS safety profile compared with no premedication or premedication with tocilizumab (TNF-α; PSMA-targeting BiTE at same dosages and frequency): improves CRS safety profile
CRS events in cycle 1, grade 2 (G2) (TNF-α; [4]): 4
CRS events in cycle 1, grade 3/4 (G3/4) (TNF-α; [4]): no grade 3/4
SAE (TNF-α; [4]): 1
discontinuations (TNF-α; [4]): 1
dose reductions (TNF-α; [4]): 0
DLT/SAE (TNF-α; subjects on PSMA-targeting BiTE with prophylaxis (etanercept 50 mg SC two days prior; tocilizumab 8 mg/kg two hours before first dose)): 1
half-life ([3]; mean±SD): 102 ± 30 h
time of maximum concentration [tmax], mean±SD ([3]; subcutaneous, slow absorption): 69 ± 34 h

tocilizumab: monoclonal antibody that competes with the binding of IL-6 to its receptor, IL-6R
CRS events in cycle 1, grade 1 (G1) (TNF-α; in vivo): 4
CRS events in cycle 1, grade 2 (G2) (TNF-α; in vivo): 7
CRS events in cycle 1, grade 3 (G3) (TNF-α; in vivo): 4
SAE (TNF-α; in vivo): 2
discontinuations (TNF-α; in vivo): 2
dose reductions (TNF-α; in vivo): 2
